The values that follow come from paper PMC8904574 (2022).

Assay [1] deals with β-subunit of the F1 part of the Na+-F1FO-ATP synthase of Acetobacterium woodii, N-terminal His6 tag (Acetobacterium woodii (strain ATCC …, UniProt P50002)). As to the kind of experiment: LILBID-MS; tested with 2 mM ATP/2 mM MgCl2; δ binds only once the α3β3 hexameric head (α3β3γ/α3β3γε) is preformed.
In assay [2] the target is α-subunit of the F1 part of the Na+-F1FO-ATP synthase of Acetobacterium woodii, N-terminal StrepI tag (Acetobacterium woodii (strain ATCC …, UniProt P50000)). The description is as above.
Sequence of α-subunit of the F1 part of the Na+-F1FO-ATP synthase of Acetobacterium woodii, N-terminal StrepI tag (Acetobacterium woodii (P50000 whole entry): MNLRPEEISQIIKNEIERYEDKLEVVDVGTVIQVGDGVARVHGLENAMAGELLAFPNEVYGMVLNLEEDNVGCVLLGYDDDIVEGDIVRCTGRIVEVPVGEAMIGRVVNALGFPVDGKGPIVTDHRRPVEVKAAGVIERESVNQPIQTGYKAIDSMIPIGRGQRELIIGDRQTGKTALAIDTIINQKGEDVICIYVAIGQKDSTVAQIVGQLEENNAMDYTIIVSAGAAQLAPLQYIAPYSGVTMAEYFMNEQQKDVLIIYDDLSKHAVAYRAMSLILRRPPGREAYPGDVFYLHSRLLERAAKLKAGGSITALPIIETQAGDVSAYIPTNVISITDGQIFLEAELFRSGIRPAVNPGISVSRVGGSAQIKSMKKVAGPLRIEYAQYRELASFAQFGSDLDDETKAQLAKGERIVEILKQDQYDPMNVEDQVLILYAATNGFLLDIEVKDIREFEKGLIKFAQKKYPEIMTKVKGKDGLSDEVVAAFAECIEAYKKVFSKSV

Sequence of β-subunit of the F1 part of the Na+-F1FO-ATP synthase of Acetobacterium woodii, N-terminal His6 tag (Acetobacterium woodii (P50002 whole entry): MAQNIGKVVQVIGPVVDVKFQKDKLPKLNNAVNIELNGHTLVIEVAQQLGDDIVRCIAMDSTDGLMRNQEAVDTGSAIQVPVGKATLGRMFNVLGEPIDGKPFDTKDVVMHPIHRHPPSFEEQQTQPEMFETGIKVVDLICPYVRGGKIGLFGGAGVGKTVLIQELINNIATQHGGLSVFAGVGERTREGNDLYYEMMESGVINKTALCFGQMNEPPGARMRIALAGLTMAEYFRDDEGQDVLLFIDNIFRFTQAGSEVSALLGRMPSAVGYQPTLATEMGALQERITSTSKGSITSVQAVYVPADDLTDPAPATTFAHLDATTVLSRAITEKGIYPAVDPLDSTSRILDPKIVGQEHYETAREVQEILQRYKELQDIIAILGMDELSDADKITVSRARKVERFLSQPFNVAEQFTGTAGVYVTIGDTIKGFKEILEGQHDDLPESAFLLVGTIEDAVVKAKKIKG

B1: δ-subunit of the F1 part of the Na+-F1FO-ATP synthase of Acetobacterium woodii, C-terminal His6 tag (protein)
chain: MSLVASKYARALFDVAVDKDQLDEIFSDFKTATDLFSSEKKFMDLMLTPSLNTGEKKGILMRSLESLSNQYVKNYLMILMDKNRFEDIFDIYEAFRKLCNEHKNLVEARVLTVIPLDETLRIALEENLAKRFNKKVILENEIDKSILGGAVVYVGDQIIDGSIKNQLSQMKKQVNNLRLH
As for B1, the binding result in assay [1] and in assay [2] was “no binding” each time.
